We go through 3 molecules from publication PMC12275187, “CpgD is a phosphoglycerate cytidylyltransferase required for ceramide diphosphoglycerate synthesis” (The Journal of Biological Chemistry, 2025).

One data set addresses T1, CpgD (CCNA_01210) (Caulobacter vibrioides, UniProt A0A0H3C7D9).
T1 construct: expressed in E. coli ER2566; primers encode N-terminus MQPVKT, C-terminus EAEAV
T1 sequence (A0A0H3C7D9 1-253): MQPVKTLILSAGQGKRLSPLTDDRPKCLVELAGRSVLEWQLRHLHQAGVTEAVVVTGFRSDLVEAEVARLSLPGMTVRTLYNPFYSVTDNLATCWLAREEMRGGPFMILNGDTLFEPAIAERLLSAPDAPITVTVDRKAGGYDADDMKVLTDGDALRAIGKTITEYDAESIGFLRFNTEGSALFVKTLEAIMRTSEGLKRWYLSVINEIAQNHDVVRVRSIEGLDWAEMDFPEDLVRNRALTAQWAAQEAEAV
The data set is described as follows: thermal shift assay (GloMelt dye). Type of data set: binding. Particulars: 10 mM nucleotide, 50 mM MgCl2, 50 mM HEPES pH 7.5; Tm change only in figure.

Substrate in data set [1]: Nc1ccn([C@@H]2O[C@H](COP(=O)(O)OP(=O)(O)OP(=O)(O)O)[C@@H](O)[C@H]2O)c(=O)n1
The data set is described as follows: HPAEC quantification of CDP-glycerate. In kind it is biochemical, Caulobacter vibrioides. From the text: (§1) HPAEC quantification of CDP-glycerate on CpgD (CCNA_01210)

Substrate in data set [2]: O=C(O)[C@@H](CO)OP(=O)(O)O
The data set is described as follows: HPAEC quantification of CDP-glycerate. In kind it is biochemical, Caulobacter vibrioides. Particulars: 10 mM CTP, 50 mM MgCl2, 50 mM HEPES pH 7.5, 45 min; pH 7.5.
Source text: as §1

Substrate in data set [3]: O=C(O)[C@H](CO)OP(=O)(O)O
The data set is described as follows: HPAEC quantification of CDP-glycerate. The following applies: 10 mM CTP, 50 mM MgCl2, 50 mM HEPES pH 7.5, 45 min; pH 7.5. In kind it is biochemical, Caulobacter vibrioides.
Source text: as §1

Substrate in data set [4]: O=C(O)[C@H](O)COP(=O)(O)O
The data set is described as follows: HPAEC quantification of CDP-glycerate. Type of data set: biochemical, Caulobacter vibrioides. The following applies: 10 mM CTP, 50 mM MgCl2, 50 mM Tris pH 8.0, 3.5 h; pH 8.0.
Source text: as §1

Where [5] appears, read: 10 mM 3-phosphoglycerate, 50 mM MgCl2, 50 mM Tris pH 8.0, 3.5 h, Michaelis-Menten fit, pH 8.0.
Setting [6] is: 10 mM D-2-phosphoglycerate, 50 mM MgCl2, 50 mM HEPES pH 7.5, 45 min, Hill fit, cooperative (Hill coefficient 2.5), pH 7.5.

For `Nc1ccn([C@@H]2O[C@H](COP(=O)(O)OP(=O)(O)OP(=O)(O)O)[C@@H](O)[C@H]2O)c(=O)n1` [CTP], the Tm entry on CpgD (CCNA_01210) is recorded as “increase in the melting temperature of the protein was only observed upon addition of CTP”.
For `Nc1ncnc2c1ncn2[C@@H]1O[C@H](COP(=O)(O)OP(=O)(O)OP(=O)(O)O)[C@@H](O)[C@H]1O` [ATP], on CpgD (CCNA_01210), the Tm entry was “we consistently measured a lower melting temperature in the presence of ATP”.

B1: CpgD (CCNA_01210) (Caulobacter vibrioides NA1000) (protein)
chain: T1 sequence (A0A0H3C7D9 1-253)
notes: expressed in E. coli ER2566; primers encode N-terminus MQPVKT, C-terminus EAEAV
Regarding B1, the Michaelis-Menten constant (Km) in data set [1] (setting [5]) was 4.8 ± 0.9 mM; in data set [2], 0.84 ± 0.16 mM; in data set [3], 3.1 ± 0.6 mM; in data set [4], 10.9 ± 0.7 mM. The Vmax in data set [1] (setting [5]) was 0.4 µmol/min/mg; in data set [1] (setting [6]), 3.6 µmol/min/mg; in data set [2] it was 3.2 µmol/min/mg; in data set [3], 1.5 µmol/min/mg; in data set [4], 0.72 µmol/min/mg. In addition, the K0.5 in data set [1] (setting [6]) stood at 6.4 ± 0.8 mM.

The Km is the concentration of substrate that gives half-maximal velocity. One may read the Vmax as the top rate of the reaction or transport when substrate is in excess.
